The results in this text go back to patent publication US20210371527A1 (IMAGINAB, published 2021).

The target of the test is T1, human CD4 on HPB-ALL cells (human, UniProt P01730 26-458).
T1 construct: The assay used HPB-ALL cells; no signal peptide limits are stated; also called HPB-ALL cells (human T cell leukemia, DSMZ ACC 483); HPC-ALL
In words: flow cytometry on HPB-ALL cells.

B1: deferoxamine conjugated humanized IAB41-1 minibody (other)
chain: EIVLTQSPATLSLSPGERATLSCSARSSVSYLYWYQQKPGQAPRLLIYDTSNLASGIPDRFSGSGSGTDFTLTISRLEPEDAAVYYCQQWSDYPLTFGGGTKLEIKGSTSGGGSGGGSGGGGSSQVQLVQSGAEVKKPGASVKVSCKASGYSFANYWMHWVRQAPGQRLEWIGALYPGNVDTTYNQKFQGRVTITRDTSASTAYMELSSLRSEDTAVYYCTRMGTTLEAPLDYWGQGTLVTVSSEPKSSDKTHTCPPCPPCGGGSSGGGSGGQPREPQVYTLPPSREEMTKNQVSLTCLVKGFYPSDIAVEWESNGQPENNYKTTPPVLDSDGSFFLYSKLTVDKSRWQQGNVFSCSVMHEALHNHYTQKSLSLSPG
modifications: deferoxamine (Df) chelator conjugated; sites of conjugation not stated
notes: also called Df-Hu-IAB41-1
For B1, the binding result was “binds”.

B2: humanized IAB41-1 minibody (other)
chain: EIVLTQSPATLSLSPGERATLSCSARSSVSYLYWYQQKPGQAPRLLIYDTSNLASGIPDRFSGSGSGTDFTLTISRLEPEDAAVYYCQQWSDYPLTFGGGTKLEIKGSTSGGGSGGGSGGGGSSQVQLVQSGAEVKKPGASVKVSCKASGYSFANYWMHWVRQAPGQRLEWIGALYPGNVDTTYNQKFQGRVTITRDTSASTAYMELSSLRSEDTAVYYCTRMGTTLEAPLDYWGQGTLVTVSSEPKSSDKTHTCPPCPPCGGGSSGGGSGGQPREPQVYTLPPSREEMTKNQVSLTCLVKGFYPSDIAVEWESNGQPENNYKTTPPVLDSDGSFFLYSKLTVDKSRWQQGNVFSCSVMHEALHNHYTQKSLSLSPG
notes: also called Hu-IAB41-1; Construct 41-1
For the molecule B2, the binding result is “binds”.
